1 molecule from patent publication US20260209265A1 (NAVIGO PROTEINS, published 2026) can be followed below.

Assay [1] has as its target T1, Octagam (IgG sample).
T1 construct: also called hIgG
Description: DBC10 of the immobilized ligand after 50 h in 1 M NaOH, in % of the DBC10 at 0 h; Octagam loaded, 6 min residence time.

Assay [2] concerns the target T1, Octagam (IgG sample). In words: step pH elution with 0.1 M acetic acid of hIgG (Octagam) bound to the immobilized ligand; percent of the bound IgG released at pH 4.0.
In another assay the target is T2, Panitumab (IgG2).
T2 construct: also called hIgG2
In words: SPR (Bruker SPR-32, 25 C, Langmuir 1:1 model).

The target of a further assay is Natalizumab (IgG4). In words: SPR (Bruker SPR-32, 25 C, Langmuir 1:1 model).
The target of assay [3] is T1, Octagam (IgG sample). In words: dynamic binding capacity at 10% breakthrough; ligand coupled to agarose beads, Octagam 2.2 mg/ml loaded.
The target in assay [4] is T1, Octagam (IgG sample). Description: step pH elution with 0.1 M acetic acid of hIgG (Octagam) bound to the immobilized ligand; percent of the bound IgG released at pH 3.7.

Natalizumab (IgG4), sequence (VH, as listed by the source, chain 1 of 2): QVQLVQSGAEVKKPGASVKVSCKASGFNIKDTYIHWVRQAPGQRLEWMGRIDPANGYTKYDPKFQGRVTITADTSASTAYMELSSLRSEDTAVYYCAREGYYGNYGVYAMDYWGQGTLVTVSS
Natalizumab (IgG4), sequence (VL, as listed by the source, chain 2 of 2): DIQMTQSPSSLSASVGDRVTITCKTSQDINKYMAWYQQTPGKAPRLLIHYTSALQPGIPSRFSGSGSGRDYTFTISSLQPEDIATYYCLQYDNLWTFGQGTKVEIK
Description for Natalizumab (IgG4): (§1) A sensor chip (Bruker) was equilibrated with surface plasmon resonance (SPR) running buffer. Surface-exposed carboxylic groups were activated by passing a mixture of EDC and NHS to yield reactive ester groups. 700-1500 RU on-ligand were immobilized on a flow cell, off-ligand was immobilized on another flow cell. Injection of ethanolamine after ligand immobilization removes non-covalently bound Ig binding protein. Upon ligand binding, protein analyte was accumulated on the surface increasing the refractive index. This change in the refractive index was measured in real time and plotted as response or resonance units (RU) versus time. The analytes were applied to the chip in serial dilutions with a suitable flow rate (pl/min). After each run, the chip surface was regenerated with regeneration buffer and equilibrated with running buffer. The control samples were applied to the matrix. Regeneration and re-equilibration were performed as previously mentioned. Binding studies were carried out by the use of the Bruker SPR-32 at 25° C.; data evaluation was operated via the Bruker evaluation software, provided by the manufacturer, by the use of the Langmuir 1:1 model (RI=0).
Description for Panitumab (IgG2): as §1

B1: 224777 (SEQ ID NO: 7) (designed binder)
chain: AQFDKIAQIAFYAILHLPNLTEEQRHAFIQSLRDDPSVSKEILAEAKKLNDAQAPKIAAQFDKIAQIAFYAILHLPNLTEEQRHAFIQSLRDDPSVSKEILAEAKKLNDAQAPKIAAQFDKIAQIAFYAILHLPNLTEEQRHAFIQSLRDDPSVSKEILAEAKKLNDAQAPKIAAQFDKIAQIAFYAILHLPNLTEEQRHAFIQSLRDDPSVSKEILAEAKKLNDAQAPKIAAQFDKIAQIAFYAILHLPNLTEEQRHAFIQSLRDDPSVSKEILAEAKKLNDAQAPK
notes: also called 224777 pentamer
Take B1: the “Remaining IgG binding capacity after 50 h, 1 M NaOH (%)” value with Octagam (IgG sample) [1] came to 76%. In addition, the “Amount eluted IgG pH 4.0 (%)” value with Octagam (IgG sample) [2] amounted to 100%. The Kd with Panitumab (IgG2) is 5.8 nM; in the assay with Natalizumab (IgG4), 2 nM. Also, the “DBC10% 6 min residence time” value with Octagam (IgG sample) [3] came out at 61 mg/mL. In addition, the “Amount eluted IgG pH 3.7 (%)” value with Octagam (IgG sample) [4] amounted to 0%.

Usually Kd stands for the free concentration of one partner at which half of the binding sites on the other are occupied at equilibrium, for simple one-to-one binding. Higher therefore signals a looser complex.
